Reference: patent publication US7521054

Molecular target: mesothelin (UniProt Q13421)
Experiment: cell-based or functional assay

UniProt Q13421, sequence (Q13421 other isoform, or with tags, fused parts or gaps limits assumed): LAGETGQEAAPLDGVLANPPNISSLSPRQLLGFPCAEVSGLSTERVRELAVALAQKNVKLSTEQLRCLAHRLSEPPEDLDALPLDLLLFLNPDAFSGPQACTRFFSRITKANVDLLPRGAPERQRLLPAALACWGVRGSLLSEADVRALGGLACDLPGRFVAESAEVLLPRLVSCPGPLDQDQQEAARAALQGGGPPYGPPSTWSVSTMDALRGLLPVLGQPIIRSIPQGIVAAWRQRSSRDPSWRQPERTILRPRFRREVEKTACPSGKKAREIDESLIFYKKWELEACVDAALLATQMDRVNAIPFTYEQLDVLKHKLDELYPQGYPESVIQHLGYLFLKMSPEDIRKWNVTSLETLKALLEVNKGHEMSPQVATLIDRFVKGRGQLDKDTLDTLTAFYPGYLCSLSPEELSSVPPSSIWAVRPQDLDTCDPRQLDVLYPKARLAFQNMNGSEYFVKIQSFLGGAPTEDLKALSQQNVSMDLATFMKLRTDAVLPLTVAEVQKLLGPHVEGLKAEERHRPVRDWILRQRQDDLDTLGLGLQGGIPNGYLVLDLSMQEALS

Work on “SS1(dsFv)-PE38 (from UniProt P11439 278-389; P11439 406-638)” yielded an IC50 (NG/ML), cytotoxic activity on A431-K5 cells of 0.63 ng/mL.
